{"source": "paper PMC7918695", "about": "“TFF1 Induces Aggregation and Reduces Motility of Helicobacter pylori” (International Journal of Molecular Sciences, 2021)", "proteins": {"B1": {"name": "human recombinant protein TFF1 (trefoil factor 1) (natural protein, UniProt P04155 25-84, looked up)", "chain": "EAQTETCTVAPRERQNCGFPGVTPSQCANKGCCFDDTVRGVPWCFYPNTIDVPPEEECEF", "notes": "Trefoil factor 1 (TFF1), human, recombinant from the hrTFF1-pIVEX vector; It is probably the mature secreted TFF1 without its signal peptide (surmised); The homodimer is held by disulfide bonds, since it is seen only under non-reducing conditions; also called hrTFF1; hTFF1; source: E. coli BLR (DE3) pLysS, purified (HisTrap HP, Factor Xa digestion, second HisTrap pass)"}}, "molecular_target": "the molecule itself", "assay": "non-reducing SDS-PAGE with Western blot; purified hrTFF1 loaded without reducing agents to preserve the disulfide bonds; probed with polyclonal anti-TFF1 antibody"}
{"protein": "B1", "values": [{"measurement": "stoichiometry N", "value": 2}]}
